Experimental data taken from US20150139990A1 (DAINIPPON SUMITOMO PHARMA, published 2015).

T1: human CD81 mutant V135A (human, UniProt P60033 1-236, limits assumed)
T1 construct: as m30; not shown: C-terminal V5 and 6xHis tags
T1 sequence: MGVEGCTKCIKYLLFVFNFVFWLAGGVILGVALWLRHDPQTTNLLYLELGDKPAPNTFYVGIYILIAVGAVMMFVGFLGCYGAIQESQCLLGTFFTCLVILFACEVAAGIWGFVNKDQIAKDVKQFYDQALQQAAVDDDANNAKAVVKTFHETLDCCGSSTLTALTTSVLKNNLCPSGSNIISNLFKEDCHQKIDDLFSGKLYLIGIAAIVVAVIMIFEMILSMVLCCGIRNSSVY

T2: human CD81 mutant A164T (human, UniProt P60033 1-236, limits assumed)
T2 construct: as m30; not shown: C-terminal V5 and 6xHis tags
T2 sequence: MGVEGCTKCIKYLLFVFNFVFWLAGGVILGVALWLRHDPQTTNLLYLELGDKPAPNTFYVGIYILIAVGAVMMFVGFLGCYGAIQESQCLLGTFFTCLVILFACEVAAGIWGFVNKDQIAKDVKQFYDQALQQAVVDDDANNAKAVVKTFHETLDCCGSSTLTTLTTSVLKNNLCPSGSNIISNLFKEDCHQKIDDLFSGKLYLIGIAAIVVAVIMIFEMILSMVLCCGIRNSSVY

T3: human CD81 mutant L165A (human, UniProt P60033 1-236, limits assumed)
T3 construct: as m30; not shown: C-terminal V5 and 6xHis tags
T3 sequence: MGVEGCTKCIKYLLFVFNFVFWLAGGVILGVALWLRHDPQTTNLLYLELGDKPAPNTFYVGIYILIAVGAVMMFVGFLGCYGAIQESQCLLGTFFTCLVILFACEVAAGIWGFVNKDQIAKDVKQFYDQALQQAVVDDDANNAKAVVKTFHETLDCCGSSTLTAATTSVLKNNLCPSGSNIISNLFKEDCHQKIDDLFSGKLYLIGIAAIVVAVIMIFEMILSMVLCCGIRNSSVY

T4: human CD81 mutant V169A (human, UniProt P60033 1-236, limits assumed)
T4 construct: as m30; not shown: C-terminal V5 and 6xHis tags
T4 sequence: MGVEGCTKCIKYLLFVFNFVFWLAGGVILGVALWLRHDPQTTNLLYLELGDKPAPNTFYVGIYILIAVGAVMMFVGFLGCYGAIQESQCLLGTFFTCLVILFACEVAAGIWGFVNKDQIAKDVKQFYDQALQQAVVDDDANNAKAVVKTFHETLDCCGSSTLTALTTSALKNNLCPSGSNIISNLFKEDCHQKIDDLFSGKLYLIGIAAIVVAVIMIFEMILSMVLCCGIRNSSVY

T5: human CD81 mutant A164V (human, UniProt P60033 1-236, limits assumed)
T5 construct: as m30; not shown: C-terminal V5 and 6xHis tags
T5 sequence: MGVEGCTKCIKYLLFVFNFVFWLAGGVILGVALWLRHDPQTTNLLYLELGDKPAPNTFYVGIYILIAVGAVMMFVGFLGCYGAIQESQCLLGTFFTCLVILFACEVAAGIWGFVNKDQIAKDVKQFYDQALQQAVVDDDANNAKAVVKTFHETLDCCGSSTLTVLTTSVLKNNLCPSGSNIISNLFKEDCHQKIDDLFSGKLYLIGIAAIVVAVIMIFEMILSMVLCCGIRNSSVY

T6: human CD81 mutant S168T (human, UniProt P60033 1-236, limits assumed)
T6 construct: as m30; not shown: C-terminal V5 and 6xHis tags
T6 sequence: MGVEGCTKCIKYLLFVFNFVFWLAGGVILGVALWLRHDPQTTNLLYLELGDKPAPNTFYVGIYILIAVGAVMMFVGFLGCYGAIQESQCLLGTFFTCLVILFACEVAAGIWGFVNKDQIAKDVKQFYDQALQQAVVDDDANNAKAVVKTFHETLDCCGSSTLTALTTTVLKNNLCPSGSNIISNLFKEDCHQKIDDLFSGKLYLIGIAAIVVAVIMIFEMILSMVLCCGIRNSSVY

T7: human CD81 mutant V169L (human, UniProt P60033 1-236, limits assumed)
T7 construct: as m30; not shown: C-terminal V5 and 6xHis tags
T7 sequence: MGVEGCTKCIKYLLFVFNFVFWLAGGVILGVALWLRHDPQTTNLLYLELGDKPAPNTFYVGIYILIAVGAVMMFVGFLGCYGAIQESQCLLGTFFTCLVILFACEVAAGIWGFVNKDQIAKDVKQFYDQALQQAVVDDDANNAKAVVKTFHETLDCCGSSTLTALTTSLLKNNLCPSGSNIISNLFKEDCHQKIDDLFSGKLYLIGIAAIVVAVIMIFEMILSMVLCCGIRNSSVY

T8: human CD81 on CD81-expressing cells (Jurkat E6.1, human PBMC, Ramos) (human, UniProt P60033 1-236)
T8 sequence: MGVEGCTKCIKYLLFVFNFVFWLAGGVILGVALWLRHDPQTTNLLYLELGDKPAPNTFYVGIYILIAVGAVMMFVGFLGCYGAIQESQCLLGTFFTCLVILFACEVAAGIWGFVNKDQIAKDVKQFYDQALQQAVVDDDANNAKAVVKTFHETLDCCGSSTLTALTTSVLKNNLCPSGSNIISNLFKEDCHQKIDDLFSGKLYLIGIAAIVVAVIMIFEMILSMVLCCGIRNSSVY

T9: human CD81 mutant D137A (human, UniProt P60033 1-236, limits assumed)
T9 construct: as m30; not shown: C-terminal V5 and 6xHis tags
T9 sequence: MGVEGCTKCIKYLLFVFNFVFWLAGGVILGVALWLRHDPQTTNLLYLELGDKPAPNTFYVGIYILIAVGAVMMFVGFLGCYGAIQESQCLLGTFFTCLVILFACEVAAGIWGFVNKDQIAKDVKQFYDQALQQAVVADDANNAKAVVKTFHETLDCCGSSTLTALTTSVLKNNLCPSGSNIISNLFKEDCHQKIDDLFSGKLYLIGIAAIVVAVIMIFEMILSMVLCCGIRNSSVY

T10: human CD81 mutant D137E (human, UniProt P60033 1-236, limits assumed)
T10 construct: as m30; not shown: C-terminal V5 and 6xHis tags
T10 sequence: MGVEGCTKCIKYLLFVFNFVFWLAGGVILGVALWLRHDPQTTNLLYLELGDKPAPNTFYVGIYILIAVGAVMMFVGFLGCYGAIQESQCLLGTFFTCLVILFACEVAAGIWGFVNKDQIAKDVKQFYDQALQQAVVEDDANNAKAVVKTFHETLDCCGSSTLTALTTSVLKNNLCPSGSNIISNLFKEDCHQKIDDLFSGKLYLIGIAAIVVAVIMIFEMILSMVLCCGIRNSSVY

T11: human CD81 mutant G158S (human, UniProt P60033 1-236, limits assumed)
T11 construct: as m30; not shown: C-terminal V5 and 6xHis tags
T11 sequence: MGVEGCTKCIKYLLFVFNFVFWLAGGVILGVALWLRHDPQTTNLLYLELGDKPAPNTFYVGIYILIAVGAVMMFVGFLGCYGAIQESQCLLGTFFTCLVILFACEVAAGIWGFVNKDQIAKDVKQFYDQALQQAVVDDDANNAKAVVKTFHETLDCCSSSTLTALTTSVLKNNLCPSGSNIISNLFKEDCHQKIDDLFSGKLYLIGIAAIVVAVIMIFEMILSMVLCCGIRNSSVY

T12: human CD81 mutant V135L (human, UniProt P60033 1-236, limits assumed)
T12 construct: as m30; not shown: C-terminal V5 and 6xHis tags
T12 sequence: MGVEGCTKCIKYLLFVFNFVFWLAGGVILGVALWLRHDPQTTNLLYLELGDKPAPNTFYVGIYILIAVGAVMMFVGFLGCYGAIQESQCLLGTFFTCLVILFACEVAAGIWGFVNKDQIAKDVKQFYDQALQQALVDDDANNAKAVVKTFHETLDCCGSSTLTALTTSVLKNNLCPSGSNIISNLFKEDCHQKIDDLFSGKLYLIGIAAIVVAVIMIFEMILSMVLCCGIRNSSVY

T13: human CD81 mutant H151R (human, UniProt P60033 1-236, limits assumed)
T13 construct: as m30; also called H151B; not shown: C-terminal V5 and 6xHis tags
T13 sequence: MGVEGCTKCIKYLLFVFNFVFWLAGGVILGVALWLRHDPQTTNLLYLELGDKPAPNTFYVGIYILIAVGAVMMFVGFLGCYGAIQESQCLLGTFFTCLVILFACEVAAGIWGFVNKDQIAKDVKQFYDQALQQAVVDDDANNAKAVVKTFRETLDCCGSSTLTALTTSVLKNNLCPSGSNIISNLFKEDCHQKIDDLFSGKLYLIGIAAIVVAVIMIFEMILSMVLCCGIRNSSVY

T14: human CD81 mutant I194A (human, UniProt P60033 1-236, limits assumed)
T14 construct: as m30; not shown: C-terminal V5 and 6xHis tags
T14 sequence: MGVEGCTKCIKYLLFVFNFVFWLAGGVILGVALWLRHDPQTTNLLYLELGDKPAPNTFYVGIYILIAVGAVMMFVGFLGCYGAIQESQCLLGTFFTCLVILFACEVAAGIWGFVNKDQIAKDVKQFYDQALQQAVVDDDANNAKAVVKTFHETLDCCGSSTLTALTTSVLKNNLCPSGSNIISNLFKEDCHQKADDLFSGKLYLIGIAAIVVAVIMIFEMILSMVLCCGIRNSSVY


Experiments:
[1] = target: T1, human CD81 mutant V135A; experiment: ELISA
[2] = target: T2, human CD81 mutant A164T; experiment: ELISA
[3] = target: T3, human CD81 mutant L165A; experiment: ELISA
[4] = target: T4, human CD81 mutant V169A; experiment: ELISA
[5] = target: T5, human CD81 mutant A164V; experiment: ELISA
[6] = target: T6, human CD81 mutant S168T; experiment: ELISA
[7] = target: T7, human CD81 mutant V169L; experiment: ELISA
[8] = target: T8, human CD81 on CD81-expressing cells …; experiment: cell-based or functional assay
[9] = target: T9, human CD81 mutant D137A; experiment: ELISA
[10] = target: T10, human CD81 mutant D137E; experiment: ELISA
[11] = target: T11, human CD81 mutant G158S; experiment: ELISA
[12] = target: T12, human CD81 mutant V135L; experiment: ELISA
[13] = target: T13, human CD81 mutant H151R; experiment: ELISA
[14] = target: T14, human CD81 mutant I194A; experiment: ELISA

| relative binding affinity [1] | relative binding affinity [2] | relative binding affinity [3] | relative binding affinity [4] | relative binding affinity [5] | relative binding affinity [6] | relative binding affinity [7] | Jurkat chemotaxis (% of control IgG4) at 0.001 µg/mL [8] | Jurkat chemotaxis (% of control IgG4) at 0.01 µg/mL [8] | Jurkat chemotaxis (% of control IgG4) at 0.1 µg/mL [8] | Jurkat chemotaxis (% of control IgG4) at 1 µg/mL [8] | Jurkat chemotaxis (% of control IgG4) at 10 µg/mL [8] | relative binding affinity [9] | relative binding affinity [10] | relative binding affinity [11] | relative binding affinity [12] | relative binding affinity [13] | relative binding affinity [14] | Binder |
| --- | --- | --- | --- | --- | --- | --- | --- | --- | --- | --- | --- | --- | --- | --- | --- | --- | --- | --- |
| < 20% | < 20% | < 20% | < 20% | < 20% | < 20% | < 20% | 79% | 69% | -4% | -11% | -9% | – | – | – | – | – | – | 002-A07 S115N (antibody, human IgG4 S228P, lambda, V domains shown, IgG4 S228P; glycosylation site mutant of 002-A07 VL) VH: EVQLLESGGGLVQPGGSLRLSCAASGFTFSSNYMSWVRQAPGKGLEWVSYISSSSTYTDYADSVKGRFTISRDNSKNTLYLQMNSLRAEDTAVYYCARYSYGRDNFDYWGQGTLVTVSS VL: QSVLTQPPSASGTPGQRVTISCTGSTSNIGAGYDTHWYQQLPGTAPKLLIYGNSNRPSGVPDRFSGSKSGTSASLAISGLRSEDEADYYCQSYDTNLNVWVFGGGTKLTVLG |
| < 20% | < 20% | < 20% | < 20% | < 20% | – | < 20% | 106% | 104% | 31% | -5% | -4% | < 20% | < 20% | – | – | – | – | 002-C02 (antibody, human IgG4 S228P, lambda, V domains shown, IgG4 S228P) VH: EVQLLESGGGLVQPGGSLRLSCAASGFTFSSNYMSWVRQAPGKGLEWVSYISSSSSYTDYADTVKGRFTISRDNSKNTLYLQMNSLRAEDTAVYYCASYSYGRDSFDYWGQGTLVTVSS VL: QSVLTQPPSASGTPGQRVTISCTGSTSNIGAGYDTHWYQQLPGTAPKLLIYGNSNRPSGVPDRFSGSKSGTSASLAISGLRTEDEADYYCQSYDTNLSVWVFGGGTKLTVLG |
| < 20% | < 20% | < 20% | < 20% | < 20% | – | < 20% | 84% | 78% | 10% | -1% | -10% | < 20% | – | < 20% | < 20% | < 20% | – | 002-B05 (antibody, human IgG4 S228P, lambda, V domains shown, IgG4 S228P) VH: EVQLLESGGGLVQPGGSLRLSCAASGFTFSSNYMSWVRQAPGKGLEWVSYISSSSTYTDYADSVKGRFTISRDNSKNTLYLQMNSLRAEDTAVYYCARYSYSRDNFDYWGQGTLVTVSS VL: QSVLTQPPSASGTPGQRVTISCTGSTSNIGAGYGTHWYQRLPGTAPKLLIYGNSNRPSGVPDRFSGSKSGTSASLAISGLRSEDEADYYCQSYDTNLSVWVFGGGTKLTVLG |
| < 20% | < 20% | < 20% | < 20% | < 20% | < 20% | < 20% | 89% | 87% | 35% | 4% | 9% | – | – | – | – | – | < 20% | 002-F01 (antibody, human IgG4 S228P, lambda, V domains shown, IgG4 S228P) VH: EVQLLESGGGLVQPGGSLRLSCAASGFTFSSNYMSWVRQAPGKGLEWVSYISSSSTYTDYADSVKGRFTISRDNSKNTLYLQMNSLRAEDTAVYYCARYSYGRDNFDYWGQGTLVTVSS VL: QSVLTQPPSASGTPGQRVTISCTGSTSNIGAGYDTHWYQQLPGTAPKLLIYGNSNRPSGVPDRFSGSKSGTSASLAISGLRSEDEADYYCQSYDTNLSAWVFGGGTKLTVLG |
